According to paper PMC12077208, “Cryo-EM reveals a double oligomeric ring scaffold of the CHIKV nsP3 peptide in complex with the NTF2L domain of host G3BP1” (mBio, 2025):

Molecular target: T1, nuclear translocation factor 2-like (NTF2L) domain of human G3BP1 (human, UniProt Q13283-1 1-138)
T1 construct: three extra residues Gly-Ala-Ser left at the N-terminus after TEV cleavage of the 6xHis tag; complete chains (1-138) are C, G, N and R; also called G3BP1-NTF2L domain; source: E. coli BL21 (DE3), purified (Ni-NTA, TEV cleavage, second Ni-NTA, SEC); not shown: His6, N-terminal, cleaved
Experiment: ITC; peptide injected into NTF2L in the cell, 20°C, 20 mM HEPES, 150 mM NaCl, pH 7.5
Conditions: both partners purified

T1 sequence (Q13283 other isoform, or with tags, fused parts or gaps): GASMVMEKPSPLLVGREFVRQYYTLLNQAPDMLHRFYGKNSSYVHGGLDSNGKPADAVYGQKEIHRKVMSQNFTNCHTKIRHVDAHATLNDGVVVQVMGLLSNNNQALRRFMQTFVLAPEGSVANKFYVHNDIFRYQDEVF

Binder	fold reduction of binding affinity against CHIKV-43 with NTF2L [fold]	stoichiometry N	Kd [nM]
ITFGDFNDGEIESLSSELLTFGDFLP [CHIKV-26 peptide (residues Ile473 to Pro498 of CHIKV nsP3, without the α2 region)]	~100	1 CHIKV-26 per NTF2L (1:1)	
LTFGDFLPGEVDDLTDSD (also called C-terminus (motif 2 and α2) of CHIKV-43) [C-terminal region of CHIKV-43, 491LTFGDFLPGEVDDLTDSD508 (motif 2 and α2)]			2200 ± 500
ITFGDFNDGEIESLSSEL (also called N-terminus (motif 1 and α1) of CHIKV-43) [N-terminal region of CHIKV-43, 473ITFGDFNDGEIESLSSEL490 (motif 1 and α1)]			3400 ± 700
